Earlier results in article PMC7663405.

Target: CD80 (Homo sapiens) (UniProt P33681)
Sequence of UniProt P33681 (P33681 35-242): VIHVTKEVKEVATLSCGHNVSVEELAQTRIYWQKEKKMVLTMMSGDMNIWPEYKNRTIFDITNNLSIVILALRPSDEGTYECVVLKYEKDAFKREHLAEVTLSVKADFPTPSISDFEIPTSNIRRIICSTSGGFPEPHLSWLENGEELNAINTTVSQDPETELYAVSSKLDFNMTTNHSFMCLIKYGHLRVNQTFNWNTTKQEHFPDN

For PD-L1 (from UniProt Q9NZQ7), the Kd is given as 1900 nM.
